biological target: hexahistidine (6His)-tagged KDM2B/SKP1 dimer (human, UniProt Q8NHM5 1059-1336; P63208 1-163); experiment: BLI
Sequence (Q8NHM5 1059-1336, chain 1 of 2): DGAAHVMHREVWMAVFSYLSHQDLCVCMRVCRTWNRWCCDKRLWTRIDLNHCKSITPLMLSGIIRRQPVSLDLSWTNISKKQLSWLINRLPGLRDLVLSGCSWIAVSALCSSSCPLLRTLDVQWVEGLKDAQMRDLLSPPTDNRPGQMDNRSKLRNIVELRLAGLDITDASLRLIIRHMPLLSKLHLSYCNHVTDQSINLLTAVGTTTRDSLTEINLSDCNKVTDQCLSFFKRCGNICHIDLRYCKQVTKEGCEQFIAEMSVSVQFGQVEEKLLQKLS
Sequence (P63208 whole entry, chain 2 of 2): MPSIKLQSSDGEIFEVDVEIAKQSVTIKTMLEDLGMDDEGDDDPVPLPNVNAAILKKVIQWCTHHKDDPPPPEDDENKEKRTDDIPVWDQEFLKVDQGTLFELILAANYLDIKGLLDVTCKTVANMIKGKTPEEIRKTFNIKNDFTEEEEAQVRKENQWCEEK

Row | Kd [nM] | Binder
1 | 43000 | PCGF1 RAWUL (150–259)/BCOR PUFD dimer (complex, human) chain 1: LPFSSFDHSKAHYYRYDEQLNLCLERLSSGKDKNKSVLQNKYVRCSVRAEVRHLRRVLCHRLMLNPQHVQLLFDNEVLPDHMTMKQIWLSRWFGKPSPLLLQYSVKEKRR chain 2: SDVFEFEFSETPLLPCYNIQVSVAQGPRNWLLLSDVLKKLKMSSRIFRCNFPNVEIVTIAEAEFYRQVSASLLFSCSKDLEAFNPESKELLDLVEFTNEIQTLLGSSVEWLHPSD
2 | 106 | PCGF1 RAWUL (150–259)/BCOR 1593–1748 dimer (complex, human) chain 1: LPFSSFDHSKAHYYRYDEQLNLCLERLSSGKDKNKSVLQNKYVRCSVRAEVRHLRRVLCHRLMLNPQHVQLLFDNEVLPDHMTMKQIWLSRWFGKPSPLLLQYSVKEKRR chain 2: DASGTWDFYGSSVCEPDDESGYDVLANPPGPEDQDDDDDAYSDVFEFEFSETPLLPCYNIQVSVAQGPRNWLLLSDVLKKLKMSSRIFRCNFPNVEIVTIAEAEFYRQVSASLLFSCSKDLEAFNPESKELLDLVEFTNEIQTLLGSSVEWLHPSD
3 | ~31 | PCGF1 RAWUL (150–259)/BCOR 1448–1748 dimer (complex, human) chain 1: LPFSSFDHSKAHYYRYDEQLNLCLERLSSGKDKNKSVLQNKYVRCSVRAEVRHLRRVLCHRLMLNPQHVQLLFDNEVLPDHMTMKQIWLSRWFGKPSPLLLQYSVKEKRR chain 2: PMPPEARRLIVNKNAGETLLQRAARLGYEEVVLYCLENKICDVNHRDNAGYCALHEACARGWLNIVRHLLEYGADVNCSAQDGTRPLHDAVENDHLEIVRLLLSYGADPTLATYSGRTIMKMTHSELMEKFLTDYLNDLQGRNDDDASGTWDFYGSSVCEPDDESGYDVLANPPGPEDQDDDDDAYSDVFEFEFSETPLLPCYNIQVSVAQGPRNWLLLSDVLKKLKMSSRIFRCNFPNVEIVTIAEAEFYRQVSASLLFSCSKDLEAFNPESKELLDLVEFTNEIQTLLGSSVEWLHPSD
4 | ~240 | PCGF1 RAWUL (150–259)/BCORL1 PUFD dimer (complex, human) chain 1: LPFSSFDHSKAHYYRYDEQLNLCLERLSSGKDKNKSVLQNKYVRCSVRAEVRHLRRVLCHRLMLNPQHVQLLFDNEVLPDHMTMKQIWLSRWFGKPSPLLLQYSVKEKRR chain 2: DDFMFELSDKPLLPCYNLQVSVSRGPCNWFLFSDVLKRLKLSSRIFQARFPHFEITTMPKAEFYRQVASSQLLTPAERPGGLDDRSPPGSSETVELVRYEPDLLRLLGSEVEFQSCNS
5 | 32 | PCGF1 RAWUL (150–259)/BCOR PUFD Leu1705Gln dimer (complex, human) chain 1: LPFSSFDHSKAHYYRYDEQLNLCLERLSSGKDKNKSVLQNKYVRCSVRAEVRHLRRVLCHRLMLNPQHVQLLFDNEVLPDHMTMKQIWLSRWFGKPSPLLLQYSVKEKRR chain 2: SDVFEFEFSETPLLPCYNIQVSVAQGPRNWLLLSDVLKKLKMSSRIFRCNFPNVEIVTIAEAEFYRQVSASQLFSCSKDLEAFNPESKELLDLVEFTNEIQTLLGSSVEWLHPSD

Reference: PMC8544800 (Biochemistry, 2020)
